Tests used:
Experiment in all cases: pull-down binding Z-score (relative to library population); higher = stronger binding
[1] = tested on: G-clamp-N3 (biotin conjugate); conditions: RNA library: Library-1 (pre-miRNA loops + repeats)
How it was run: (§1)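 Heat-folded RNA library (1 μg, Cy5 or Cy3 end label, phosphate/NaCl/KCl buffer) was captured for 60 min at 25 °C on streptavidin beads displaying 100 pmol of biotin-conjugated small molecule, then washed three times. The bound fraction, eluted in hot SDS, was hybridised to a DNA barcode microarray at 55.5 °C for 20 h. Z-scores for binding were taken against the library mean and standard deviation after beads-only subtraction and trimmed averaging of replicate barcoded probes.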

[2] = tested on: TO-3-N3 (biotin conjugate); conditions: RNA library: Library-2
How it was run: as §1

[3] = tested on: TO-3-N3-2 (biotin conjugate); conditions: RNA library: Library-2
How it was run: as §1

TO-N3 (biotin conjugate) = conditions: RNA library: Library-2
How it was run: as §1

[4] = tested on: TO-N3-2 (biotin conjugate); conditions: RNA library: Library-2
How it was run: as §1

| Sequence | pull-down binding Z-score [1] | pull-down binding Z-score [2] | pull-down binding Z-score [3] | pull-down binding Z-score (TO-N3 (biotin conjugate)) | pull-down binding Z-score [4] |
| --- | --- | --- | --- | --- | --- |
| AGUGAAAUAAAGGUCCAUCUCCUGCCUAUUUAUUACUUUGCU [hsa-mir-1243] | -1.12 | -0.671 | -0.112 | -0.718 | -0.5 |
| AUUGUUGCCUCUGCAUGUUACAAU [hsa-mir-8066] | 0.523 | -0.204 | -0.512 | -0.485 | -0.665 |
| GUGUAGAGGCGGAGCACAG [hsa-mir-1471] | 0.507 | 0.151 | 0.381 | 0.847 | 1.46 |
| AUGAGCUAAAAAUCCCCAAGCUCU [hsa-mir-4769] | -0.0764 | -0.414 | -0.358 | -0.477 | -0.0561 |
| UGCCAUACUUUUAACGGCA [hsa-mir-548i-4] | -0.464 | -0.727 | -0.272 | -1.09 | -1.06 |
| CAGGCGGGGCAGCCCAAUGCCAUGGGCCUGAU [hsa-mir-4695] | 2.14 | 0.737 | 0.157 | 1.32 | 1.92 |
| CUUUCUGUUGUCUGAAAGAAAGGAAAG [hsa-mir-519a-1_519a-2] | -0.55 | -0.467 | -0.315 | -0.572 | -0.239 |
| AGCUUCUACGUCAUUCAGCACUUGCU [hsa-mir-5706] | -0.819 | -0.62 | -0.211 | -0.601 | -0.31 |
| GGUGCAGUCAGUCCUAGCUC [hsa-mir-3135b] | -1.49 | -0.343 | 0.0356 | 0.224 | 1.06 |
| UCAGAUAUUUAAGUUAACAGUAUUUGA [hsa-mir-580] | 0.0815 | -0.784 | -0.347 | -1.1 | -1.5 |
| CCCCGCGCGCGGACAGACACACGGACAAGUCCCGCCAGGGG [hsa-mir-4492] | -0.362 | -0.131 | -0.38 | 1.59 | 4.65 |
| AUAUUGACACUAUAACAAUAAUGUCAAUAU [hsa-mir-4795] | 0.669 | -0.438 | -0.44 | -0.874 | -1.79 |
| UUUCUGAAUUUGUGAGA [hsa-mir-4463] | -0.0109 | -0.00836 | -0.191 | -0.277 | -0.751 |
| UGUAUAGUAUUAUUCAAUACC [hsa-mir-1912] | 0.737 | -0.222 | -0.0289 | -0.445 | -0.694 |
| CAGACUCUG [hsa-mir-4326] | 1.33 | 0.067 | -0.381 | -0.0561 | -0.0772 |
| GCUGCCCCUUUGCUCUCUGGGGUAGC [hsa-mir-3614] | 0.721 | 0.491 | 0.0223 | 0.258 | -0.388 |
| CGGAUCUCGAGGGUGCUUAUUGUUCGGUCCG [hsa-mir-615] | 1.11 | 0.418 | 0.219 | 0.185 | 0.351 |
| UGCAGUUCUGUUGGGUGACAGCA [hsa-mir-6499] | -0.982 | 0.239 | -0.0248 | 0.342 | 0.485 |
| GGCAGAAAUGUC [hsa-mir-8053] | 0.69 | -0.653 | -0.375 | -1.13 | -1.13 |

| Sequence | pull-down binding Z-score [1] | pull-down binding Z-score [2] | pull-down binding Z-score [3] | pull-down binding Z-score (TO-N3 (biotin conjugate)) | pull-down binding Z-score [4] |
| --- | --- | --- | --- | --- | --- |
| AGUGGAAAAAGUUCUUUUCUUCCUCU [hsa-mir-3192] | 0.387 | 0.0782 | 0.895 | 0.0678 | -0.263 |
| UGUGGUCACCCACUCU [hsa-mir-4316] | -0.668 | -0.237 | -0.0165 | 0.0225 | 0.297 |
| CACGAGAUUGGGUUGUGCAGAGGCUGACACUUG [hsa-mir-5004] | 0.93 | -0.363 | 0.0781 | -0.0226 | 0.63 |
| CUUCACUGGUGCAGUAAGAAG [hsa-mir-7853] | -0.0639 | -0.0978 | -0.195 | -0.253 | -0.23 |
| UGCUGUGAGCUAGCCAGCAG [hsa-mir-5693] | -0.44 | -0.0213 | 0.0593 | 0.614 | 0.91 |
| AAGUGGAGCAGGAAUGCGCUUUUCUCCACUG [hsa-mir-5187] | 1.93 | 0.299 | 0.27 | 0.567 | 0.231 |
| UGCCCUGGGGCCGUCCCUGCGCA [hsa-mir-1909] | -1.26 | 0.425 | 0.143 | 0.883 | 1.63 |
| UCCAGGGCUCCUGACACCUGGA [hsa-mir-6861] | -0.943 | -0.649 | -0.533 | -0.785 | -0.248 |
| UUUGCCUCUCUCAGAAAAUAGAGUCAAA [hsa-mir-4694] | 0.239 | 0.229 | -0.0805 | 0.157 | -0.759 |
| CGUUGAGUGGGCACCCGAGAAGCCAUCG [hsa-mir-425] | -0.628 | 0.0191 | 0.25 | 0.583 | 1.51 |
| UAUGCAAAGCUCUGACAGUGUUUCACUUGCUA [hsa-mir-7848] | 0.148 | -0.489 | -0.145 | -0.256 | -0.0647 |
| UUUGCUAUUACUUUUAAUGGUAAA [hsa-mir-548aj-2] | 1.61 | -0.666 | -0.502 | -0.932 | -1.19 |
| CACACGCUUUAUUUGUGCCGUUUG [hsa-mir-758] | -0.691 | -0.0281 | -0.318 | -0.164 | -0.655 |
| CUGUGGCCGGUCCCAG [hsa-mir-4656] | -0.405 | 1.39 | -0.0683 | 1.45 | 0.902 |
| UGGGCUCCCCUAGACUAGGACUCCA [hsa-mir-1825] | 0.254 | -0.367 | -0.507 | -0.37 | 0.508 |
| GAUUGAAGUUGAAUAGUGC [hsa-mir-3161] | 0.429 | -0.231 | 0.274 | -0.125 | 0.0514 |
| UCAAACAAGUUUCCAAAUUGUUUGA [hsa-mir-488] | -0.178 | 0.554 | -0.496 | 0.194 | -1.02 |
| GCUGGGCUGAGCUAACCAGGGCUGGGCUGAGC [hsa-mir-4537] | 0.991 | 0.138 | -0.0332 | 0.532 | 1.42 |
